Measured values from patent publication US20240226314A1 (Sanofi, published 2024).

T1: His-tagged cynomolgus monkey TfR ectodomain (cyTFRC_89_760; mature protein) (cynomolgus monkey (Macaca fascicularis), UniProt Q5RDH6 89-760 (Pongo abelii entry))
T1 construct: also called cTfR; cTfR ectodomain
T1 chain: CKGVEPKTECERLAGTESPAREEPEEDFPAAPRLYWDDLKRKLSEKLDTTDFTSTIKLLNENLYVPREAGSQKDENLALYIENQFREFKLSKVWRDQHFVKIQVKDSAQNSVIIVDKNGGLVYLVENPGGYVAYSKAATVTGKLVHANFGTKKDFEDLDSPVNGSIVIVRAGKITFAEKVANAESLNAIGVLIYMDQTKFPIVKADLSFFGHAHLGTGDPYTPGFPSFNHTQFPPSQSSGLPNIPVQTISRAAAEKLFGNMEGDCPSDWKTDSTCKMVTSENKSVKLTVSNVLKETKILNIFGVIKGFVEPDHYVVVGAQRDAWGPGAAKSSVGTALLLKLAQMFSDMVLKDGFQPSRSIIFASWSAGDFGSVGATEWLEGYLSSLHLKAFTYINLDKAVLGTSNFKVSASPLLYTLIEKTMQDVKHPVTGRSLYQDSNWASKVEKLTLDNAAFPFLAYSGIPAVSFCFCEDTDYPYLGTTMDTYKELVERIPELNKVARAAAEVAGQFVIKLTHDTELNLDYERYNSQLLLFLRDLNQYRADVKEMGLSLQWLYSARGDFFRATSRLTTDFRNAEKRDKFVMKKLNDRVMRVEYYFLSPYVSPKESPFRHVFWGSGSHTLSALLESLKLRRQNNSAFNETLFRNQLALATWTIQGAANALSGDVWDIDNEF


What was measured:
[1] = target: T2, His-tagged human TfR ectodomain (hTFRC_89-760_G142S; mature protein) (human, UniProt P02786 89-760); test: SPR, His-tagged TfR ectodomain captured on anti-His, 1:1 fit
T2 construct: It carries the G142S haplotype; also called hTfR ectodomain
Protocol: (§1) Binding of the humanized Fab variants to human, cynomolgus and mouse TfR was assessed using SPR at pH 7.4. Experiments were run on a Bruker MASS-2 instrument with HBS-EP+ as running buffer and sample diluent (Cytiva Life Sciences, #BR100826). HCA sensor chips (Bruker, #1862614) were immobilized with anti-His antibody (His capture kit, Cytiva Life Sciences, #28995056) following manufacturer's instructions. About 10,000 RU of anti-His was obtained. His-tagged hTfR ectodomain (SEQ ID NO: 39), cTfR ectodomain (SEQ ID NO: 40) or mouse TfR ectodomain (SEQ ID NO: 41) (5 μg/ml) was captured for 1 min at 10 μL/min. Concentration series of the humanized Fab variants were then injected for 4 min at 30 μL/min over hTfR surfaces and dissociation was monitored for 5 min. Surface was regenerated with one 1 min pulse of 10 mM glycine-HCl at pH 1.5.

[2] = target: T1, His-tagged cynomolgus monkey TfR …; test: as above
Protocol: as §1

[3] = target: T1, His-tagged cynomolgus monkey TfR …; test: SPR; KD on cTfR against KD on hTfR
Protocol: as §1

[4] = target: His-tagged mouse TfR ectodomain (mTFRC_89_764; mature protein) (mouse, UniProt Q62351 89-763); test: SPR, His-tagged mTfR ectodomain captured on anti-His
Protocol: as §1

T2 sequence (P02786 89-760 G142S): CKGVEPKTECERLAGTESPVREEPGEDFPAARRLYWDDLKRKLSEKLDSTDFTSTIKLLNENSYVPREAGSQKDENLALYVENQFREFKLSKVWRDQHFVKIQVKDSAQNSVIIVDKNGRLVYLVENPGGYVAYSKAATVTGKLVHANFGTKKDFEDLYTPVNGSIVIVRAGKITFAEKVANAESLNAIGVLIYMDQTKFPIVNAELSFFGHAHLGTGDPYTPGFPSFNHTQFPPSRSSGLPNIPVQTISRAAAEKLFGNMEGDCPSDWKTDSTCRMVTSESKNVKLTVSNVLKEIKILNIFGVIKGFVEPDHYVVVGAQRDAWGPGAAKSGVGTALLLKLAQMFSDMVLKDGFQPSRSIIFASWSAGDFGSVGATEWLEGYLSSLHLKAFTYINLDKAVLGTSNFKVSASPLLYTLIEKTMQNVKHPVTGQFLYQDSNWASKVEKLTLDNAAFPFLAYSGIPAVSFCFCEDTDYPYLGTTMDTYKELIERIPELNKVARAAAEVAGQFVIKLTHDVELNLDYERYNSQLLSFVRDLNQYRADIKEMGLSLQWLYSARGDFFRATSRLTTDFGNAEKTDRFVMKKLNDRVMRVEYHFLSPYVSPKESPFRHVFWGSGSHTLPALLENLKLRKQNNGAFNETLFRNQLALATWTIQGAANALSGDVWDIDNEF
His-tagged mouse TfR ectodomain (mTFRC_89_764; mature protein), sequence (Q62351 other isoform, or with tags, fused parts or gaps): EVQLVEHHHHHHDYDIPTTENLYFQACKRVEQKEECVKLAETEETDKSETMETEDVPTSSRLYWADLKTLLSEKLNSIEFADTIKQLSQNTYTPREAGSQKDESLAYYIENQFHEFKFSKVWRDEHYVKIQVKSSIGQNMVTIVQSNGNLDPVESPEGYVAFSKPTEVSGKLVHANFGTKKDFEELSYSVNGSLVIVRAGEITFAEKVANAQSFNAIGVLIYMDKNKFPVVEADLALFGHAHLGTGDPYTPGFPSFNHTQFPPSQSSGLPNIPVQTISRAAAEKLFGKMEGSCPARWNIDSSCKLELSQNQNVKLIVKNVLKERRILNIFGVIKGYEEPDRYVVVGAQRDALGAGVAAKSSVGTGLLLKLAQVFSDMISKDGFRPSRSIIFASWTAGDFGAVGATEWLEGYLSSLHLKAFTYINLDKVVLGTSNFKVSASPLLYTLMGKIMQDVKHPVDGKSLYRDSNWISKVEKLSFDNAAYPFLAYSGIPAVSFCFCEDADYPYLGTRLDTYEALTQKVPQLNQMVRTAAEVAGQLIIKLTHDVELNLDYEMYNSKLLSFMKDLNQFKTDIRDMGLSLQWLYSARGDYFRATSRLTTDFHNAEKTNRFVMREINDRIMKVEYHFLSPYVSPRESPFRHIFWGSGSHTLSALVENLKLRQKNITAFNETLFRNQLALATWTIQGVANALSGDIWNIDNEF

| Binder | Kd [1] [nM] | Kd [2] [nM] | Cynomolgus/human KD ratio [3] | binding result [4] |
| --- | --- | --- | --- | --- |
| 531_1L2_variant3 Fab (Fab, V domains shown, Humanized Fab; The His-tag was removed with TEV protease before SPR) VH: EVQLLESGGGLVQPGGSLRLSCAASGYTFTRYWLNWVRQAPGKGLEWIGMIDPSVSETHYADSVKGRATLSVDKSKNTAYLQMNSLRAEDTAVYYCSQIRLPYYYAMDSWGQGTTVTVSS VL: DIQMTQSPSSLSASVGDRVTITCRASQDINSFLNWYQQKPGKAVKLLIYYTSRLQSGVPSRFSGSGSGTDYTLTISSLQPEDFATYFCQQGNTLPRTFGGGTKVEIK | 183 | 204 | 1.1 | no binding |
| 531_1L2_variant21 Fab (Fab, V domains shown, Humanized Fab; The His-tag was removed with TEV protease before SPR) VH: QVQLVQSGAEVKKPGASVKVSCKASGYTFTRYYLNWVRQAPGQGLEWIGMIDPSVSETHYAQKFQGRATLTVDKSTSTAYMELSSLRSEDTAVYYCSQIRLPYYYAMDSWGQGTTVTVSS VL: DIQMTQSPSSLSASVGDRVTITCRASQDISSFLNWYQQKPGKAVKLLIYYTSRLQSGVPSRFSGSGSGTDYTLTISSLQPEDFATYFCQQGNTLPRTFGGGTKVEIK | 3.71 | 30.9 | 8.3 | no binding |
| 531_1L2_variant14 Fab (Fab, V domains shown, Humanized Fab; The His-tag was removed with TEV protease before SPR) VH: QVQLVQSGAEVKKPGASVKVSCKASDYTFTRYWLNWVRQAPGQGLEWMGMIDPSVSETHYAQKFQGRVTMTRDTSTSTVYMELSSLRSEDTAVYYCSQIRLPYYYAMDSWGQGTTVTVSS VL: DIQMTQSPSSLSASVGDRVTITCRASQDINSFLNWYQQKPGKAVKLLIYYTSRLQSGVPSRFSGSGSGTDYTLTISSLQPEDFATYFCQQGNTLPRTFGGGTKVEIK | 8.6 | 75.1 | 8.7 | no binding |
| 531_1L2_variant17 Fab (Fab, V domains shown, Humanized Fab; The His-tag was removed with TEV protease before SPR) VH: QVQLVQSGAEVKKPGASVKVSCKASDYTFTRYWLNWVRQAPGQGLEWIGMIDPSVSETHYAQKFQGRATLTVDKSTSTAYMELSSLRSEDTAVYYCSQIRLPYYYAMDSWGQGTTVTVSS VL: DIQMTQSPSSLSASVGDRVTITCRASQDISSFLNWYQQKPGKAVKLLIYYTSRLQSGVPSRFSGSGSGTDYTLTISSLQPEDFATYFCQQGNTLPRTFGGGTKVEIK | 5.91 | 28.9 | 4.9 | no binding |
| 531_1L2_variant8 Fab (Fab, V domains shown, Humanized Fab; The His-tag was removed with TEV protease before SPR) VH: EVQLLESGGGLVQPGGSLRLSCAASGYTFTRYYLNWVRQAPGKGLEWIGMIDPSVSETHYADSVKGRATLSVDKSKNTAYLQMNSLRAEDTAVYYCSQIRLPYYYAMDSWGQGTTVTVSS VL: DIQMTQSPSSLSASVGDRVTITCRASQDISSFLNWYQQKPGKAVKLLIYYTSRLQSGVPSRFSGSGSGTDYTLTISSLQPEDFATYFCQQGNTLPRTFGGGTKVEIK | 61.2 | 475 | 7.8 | no binding |
| 531_1L2_variant6 Fab (Fab, V domains shown, Humanized Fab; The His-tag was removed with TEV protease before SPR) VH: EVQLLESGGGLVQPGGSLRLSCAASGYTFTRYWLNWVRQAPGKGLEWIGMIDPSVSETHYADSVKGRATLSVDKSKNTAYLQMNSLRAEDTAVYYCSQIRLPYYYAMDSWGQGTTVTVSS VL: DIQMTQSPSSLSASVGDRVTITCRASQDISSFLNWYQQKPGKAVKLLIYYTSRLQSGVPSRFSGSGSGTDYTLTISSLQPEDFATYFCQQGNTLPRTFGGGTKVEIK | 77.4 | 300 | 3.9 | no binding |
| 531_1L2_variant16 Fab (Fab, V domains shown, Humanized Fab; The His-tag was removed with TEV protease before SPR) VH: QVQLVQSGAEVKKPGASVKVSCKASGYTFTRYYLNWVRQAPGQGLEWIGMIDPSVSETHYAQKFQGRATLTVDKSTSTAYMELSSLRSEDTAVYYCSQIRLPYYYAMDSWGQGTTVTVSS VL: DIQMTQSPSSLSASVGDRVTITCRASQDINSFLNWYQQKPGKAVKLLIYYTSRLQSGVPSRFSGSGSGTDYTLTISSLQPEDFATYFCQQGNTLPRTFGGGTKVEIK | 10.2 | 70.4 | 6.9 | no binding |
| 531_1L2_variant4 Fab (Fab, V domains shown, Humanized Fab; The His-tag was removed with TEV protease before SPR) VH: EVQLLESGGGLVQPGGSLRLSCAASGYTFTRYYLNWVRQAPGKGLEWIGMIDPSVSETHYADSVKGRATLSVDKSKNTAYLQMNSLRAEDTAVYYCSQIRLPYYYAMDSWGQGTTVTVSS VL: DIQMTQSPSSLSASVGDRVTITCRASQDINSFLNWYQQKPGKAVKLLIYYTSRLQSGVPSRFSGSGSGTDYTLTISSLQPEDFATYFCQQGNTLPRTFGGGTKVEIK | 120 | 1210 | 10.1 | no binding |
| 531_1L2_variant24 Fab (Fab, V domains shown, Humanized Fab; The His-tag was removed with TEV protease before SPR) VH: QVQLVQSGAEVKKPGASVKVSCKASGYTFTRYYLNWVRQAPGQGLEWIGMIDPSVSETHYAQKFQGRATLTVDKSTSTAYMELSSLRSEDTAVYYCSQIRLPYYYAMDSWGQGTTVTVSS VL: DIQMTQSPSSLSASVGDRVTITCRASQDISSFLNWYQQKPGKAVKLLIYYTSRLQSGVPSRFSGSGSGTDFTLTISSLQPEDFATYFCQQGNTLPRTFGGGTKVEIK | 10.2 | 84.6 | 8.3 | no binding |
